The labels stand for the following.
T1: BMP5 (UniProt P22003 317-454, limits assumed)
T1 sequence (looked up): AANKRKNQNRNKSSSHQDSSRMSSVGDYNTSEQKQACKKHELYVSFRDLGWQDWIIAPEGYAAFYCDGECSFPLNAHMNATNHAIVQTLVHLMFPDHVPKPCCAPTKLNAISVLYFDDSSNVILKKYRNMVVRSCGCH

T2: GDF8 (UniProt O14793 267-375)
T2 construct: also called myostatin
T2 sequence (looked up): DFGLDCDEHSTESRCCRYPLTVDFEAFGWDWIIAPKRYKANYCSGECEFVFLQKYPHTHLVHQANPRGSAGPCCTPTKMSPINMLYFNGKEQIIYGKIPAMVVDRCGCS

T3: activin A (UniProt P08476 311-426)
T3 sequence (looked up): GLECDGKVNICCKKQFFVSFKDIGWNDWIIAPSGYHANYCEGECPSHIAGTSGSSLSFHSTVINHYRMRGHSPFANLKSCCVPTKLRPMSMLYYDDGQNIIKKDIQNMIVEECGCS

T4: BMP4 (UniProt P12644 293-408)
T4 sequence (looked up): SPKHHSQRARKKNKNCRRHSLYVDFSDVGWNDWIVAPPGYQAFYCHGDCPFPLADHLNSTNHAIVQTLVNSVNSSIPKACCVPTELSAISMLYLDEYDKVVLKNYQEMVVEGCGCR

T5: BMP6 (UniProt P22004 382-513, limits assumed)
T5 sequence (looked up): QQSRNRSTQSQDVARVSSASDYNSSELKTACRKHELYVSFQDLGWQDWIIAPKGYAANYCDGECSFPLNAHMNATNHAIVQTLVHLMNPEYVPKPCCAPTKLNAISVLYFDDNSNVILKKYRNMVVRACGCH

T6: BMP15 (UniProt O95972 268-392)
T6 construct: also called GDF9b
T6 sequence (looked up): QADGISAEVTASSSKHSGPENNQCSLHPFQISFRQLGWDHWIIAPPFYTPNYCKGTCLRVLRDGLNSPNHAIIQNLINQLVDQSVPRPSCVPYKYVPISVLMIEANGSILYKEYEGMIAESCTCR

T7: BMP7 (UniProt P18075 293-431)
T7 construct: also called OP-1
T7 sequence (looked up): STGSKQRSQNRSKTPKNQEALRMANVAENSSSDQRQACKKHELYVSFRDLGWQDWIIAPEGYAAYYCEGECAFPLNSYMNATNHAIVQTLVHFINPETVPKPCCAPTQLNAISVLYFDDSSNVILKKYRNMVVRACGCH

B1: BMP9 (ligand, UniProt Q9UK05 320-429, looked up)
chain: SAGAGSHCQKTSLRVNFEDIGWDSWIIAPKEYEAYECKGGCFFPLADDVTPTKHAIVQTLVHLKFPTKVGKACCVPTKLSPISVLYKDDMGVPTLKYHYEGMSVAECGCR
notes: also called GDF2
B2: BMP10 (ligand, UniProt O95393 317-424, looked up)
chain: NAKGNYCKRTPLYIDFKEIGWDSWIIAPPGYEAYECRGVCNYPLAEHLTPTKHAIIQALVHLKNSQKASKACCVPTKLEPISILYLDKGVVTYKFKYEGMAVSECGCR
B3: activin B (ligand, UniProt P09529 293-407, looked up)
chain: GLECDGRTNLCCRQQFFIDFRLIGWNDWIIAPTGYYGNYCEGSCPAYLAGVPGSASSFHTAVVNQYRMRGLNPGTVNSCCIPTKLSTMSMLYFDDEYNIVKRDVPNMIVEECGCA
B4: ALK3-Fc homodimeric complex (Fc fusion, UniProt P36894 24-152, looked up)
chain: QNLDSMLHGTGMKSDSDQKKSENGVTLAPEDTLPFLKCYCSGHCPDDAINNTCITNGHCFAIIEEDDQGETTLASGCMKYEGSDFQCKDSPKAQLRRTIECCRTNLCNQYLQPTLPPVVIGPFFDGSIR
notes: also called homodimeric ALK3-Fc; not shown: linker and Fc portion of the homodimer
B5: GDF11 (ligand, UniProt O95390 299-407, looked up)
chain: NLGLDCDEHSSESRCCRYPLTVDFEAFGWDWIIAPKRYKANYCSGQCEYMFMQKYPHTHLVQQANPRGSAGPCCTPTKMSPINMLYFNDKQQIIYGKIPGMVVDRCGCS
notes: also called BMP11
B6: single-arm ActRIIB-Fc:Fc heterodimeric protein complex (Fc fusion)
chain 1: GRGEAETRECIYYNANWELERTNQSGLERCEGEQDKRLHCYASWRNSSGTIELVKKGCWLDDFNCYDRQECVATEENPQVYFCCCEGNFCNERFTHLPEAGGPEVTYEPPPTAPTGGGTHTCPPCPAPELLGGPSVFLFPPKPKDTLMISRTPEVTCVVVDVSHEDPEVKFNWYVDGVEVHNAKTKPREEQYNSTYRVVSVLTVLHQDWLNGKEYKCKVSNKALPAPIEKTISKAKGQPREPQVYTLPPSRKEMTKNQVSLTCLVKGFYPSDIAVEWESNGQPENNYKTTPPVLKSDGSFFLYSKLTVDKSRWQQGNVFSCSVMHEALHNHYTQKSLSLSPGK
chain 2: SNTKVDKRVTGGGTHTCPPCPAPELLGGPSVFLFPPKPKDTLMISRTPEVTCVVVDVSHEDPEVKFNWYVDGVEVHNAKTKPREEQYNSTYRVVSVLTVLHQDWLNGKEYKCKVSNKALPAPIEKTISKAKGQPREPQVYTLPPSREEMTKNQVSLTCLVKGFYPSDIAVEWESNGQPENNYDTTPPVLDSDGSFFLYSDLTVDKSRWQQGNVFSCSVMHEALHNHYTQKSLSLSPGK
notes: C-terminal lysine optionally removed; also called single-arm ActRIIB-Fc heterodimeric complex
B7: single-arm ALK3-Fc:Fc heterodimeric protein complex (Fc fusion)
chain 1: GAQNLDSMLHGTGMKSDSDQKKSENGVTLAPEDTLPFLKCYCSGHCPDDAINNTCITNGHCFAIIEEDDQGETTLASGCMKYEGSDFQCKDSPKAQLRRTIECCRTNLCNQYLQPTLPPVVIGPFFDGSIRTGGGTHTCPPCPAPELLGGPSVFLFPPKPKDTLMISRTPEVTCVVVDVSHEDPEVKFNWYVDGVEVHNAKTKPREEQYNSTYRVVSVLTVLHQDWLNGKEYKCKVSNKALPAPIEKTISKAKGQPREPQVYTLPPSREEMTKNQVSLTCLVKGFYPSDIAVEWESNGQPENNYDTTPPVLDSDGSFFLYSDLTVDKSRWQQGNVFSCSVMHEALHNHYTQKSLSLSPG
chain 2: B6 chain 2 with E147K, D183K, D190K, D200K
notes: also called single-arm ALK3-Fc heterodimer
B8: BMPRII-Fc homodimeric complex (Fc fusion, UniProt Q13873 27-150, looked up)
chain: SQNQERLCAFKDPYQQDLGIGESRISHENGTILCSKGSTCYGLWEKSKGDINLVKQGCWSHIGDPQECHYEECVVTTTPPSIQNGTYRFCCCSTDLCNVNFTENFPPPDTTPLSPPHSFNRDET
notes: also called homodimeric BMPRII-Fc; not shown: linker and Fc portion of the homodimer
B9: GDF6 (ligand, UniProt Q6KF10 336-455, looked up)
chain: TAFASRHGKRHGKKSRLRCSKKPLHVNFKELGWDDWIIAPLEYEAYHCEGVCDFPLRSHLEPTNHAIIQTLMNSMDPGSTPPSCCVPTKLTPISILYIDAGNNVVYKQYEDMVVESCGCR
notes: also called BMP13
B10: BMP2 (ligand, UniProt P12643 283-396, looked up)
chain: QAKHKQRKRLKSSCKRHPLYVDFSDVGWNDWIVAPPGYHAFYCHGECPFPLADHLNSTNHAIVQTLVNSVNSKIPKACCVPTELSAISMLYLDENEKVVLKNYQDMVVEGCGCR

Assay [1] concerns the target B8. The assay can be described thus: SPR (Biacore), receptor-Fc captured by anti-Fc antibody, ligand injected. The protocol: (§1) Ligands were injected and allowed to flow over the captured receptor protein.
In assay [2] the target is B4. Described as above.
For assay [3], the target named is T8, ActRIIA-Fc homodimeric complex (UniProt P27037 21-135).
T8 construct: also called homodimeric ActRIIA-Fc; not shown: linker and Fc portion of the homodimer
The description is as above.

For another assay, the target named is T1, BMP5. The description is as above.
A further assay concerns the target T2, GDF8. The assay can be described thus: SPR (Biacore), legend of FIG. 6. The protocol:
as §1
On the technique in general: Surface plasmon resonance follows binding to a sensor surface in real time, without labels.

In the assay “GDF11” the target is B5. The assay can be described thus: SPR (Biacore), legend of FIG. 6. The protocol: as §1
The assay “activin B” addresses B3. Nature of the assay: SPR (Biacore), legend of FIG. 6. The protocol: as §1
A further assay has as its target T3, activin A. Nature of the assay: SPR (Biacore), legend of FIG. 6. As for the experimental part:
as §1

The target in another assay is T4, BMP4. Nature of the assay: SPR (Biacore), receptor-Fc captured by anti-Fc antibody, ligand injected.
The assay “BMP2” addresses B10. The assay is described as above.
The target in the next assay is T5, BMP6. Described as above. The protocol:
as §1

The next assay addresses T6, BMP15. The assay is described as above. As for the experimental part: as §1
For the next assay, the target named is T7, BMP7. The description is as above. The protocol:
as §1

These results are taken from patent US20160289298A1 (ACCELERON PHARMA, published 2016).

Substitutions are numbered along the chain they refer to.

T8 sequence (P27037 21-135, one chain of several): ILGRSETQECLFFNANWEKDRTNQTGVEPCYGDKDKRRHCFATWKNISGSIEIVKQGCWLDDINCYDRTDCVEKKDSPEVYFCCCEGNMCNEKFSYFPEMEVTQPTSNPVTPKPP

As a reminder, the Kd is a measure of binding affinity in units of concentration. The low end stands for higher affinity, the high end for lower affinity. As a reminder, the koff is a measure of how fast the partners let go of each other. The low end stands for slow dissociation, the high end for fast dissociation. What is called kon is the second-order rate constant of association. In assay [1], B1 yielded a Kd of 2.1 nM, a koff of 0.026 s⁻¹ and an on-rate constant (kon) of 1.2e+07 M⁻¹ s⁻¹.

For the molecule B2, the binding result in assay [2] is on record as “no binding”. Moreover, the binding result in assay [3] is on record as “binds”. In [1], this molecule showed an equilibrium dissociation constant (Kd) of 0.098 nM, a dissociation rate constant (koff) of 0.0025 s⁻¹ and a kon of 2.6e+07 M⁻¹ s⁻¹.

For the molecule B3, in assay [1], the Kd was 3.8 nM, the koff turned out to be 0.075 s⁻¹ and the on-rate (kon) was 2e+07 M⁻¹ s⁻¹.

In the case of B4, in the assay with BMP5, the binding result is on record as “binds”.

As to B5, the binding result in assay [2] is “no binding”; in [3], “binds”.

Take B6: the binding result with GDF8, in the assay with GDF11, with activin B and with activin A was “binds” throughout.

Turning to B7, the binding result with BMP5, with BMP4 and with BMP2 was “binds” in each case.

As to B8, the dissociation constant Kd with BMP6 is > 8.9 nM; with BMP15 it was 0.28 nM; with BMP7, > 38 nM. In addition, the koff with BMP15 was determined as 0.0028 s⁻¹. The molecule further displayed an on-rate constant (kon) with BMP15 of 9.9e+06 M⁻¹ s⁻¹.

As for B9, the Kd in assay [1] was > 88 nM.

In the case of B10, the Kd in assay [1] was > 2000 nM.
